# Target: purified recombinant full-length PNKP (human) (UniProt Q96T60)
Substance,3'-phosphatase activity of PNKP (50 fmol) in vitro with 25-400 fmol ATXN3-Q29: stimulation,3'-phosphatase activity of PNKP (50 fmol) in vitro with 50-200 fmol ATXN3-Q72: decrease
ATXN3-Q29 (WT with 29 polyQ repeats) (from UniProt P54252 1-361) (natural protein),4 fold,
ATXN3-Q72 (the pathological form with 72 polyQ repeats) (from UniProt P54252 1-361) (natural protein),,3.5 fold

# Reference: publication PMC4310589
